Measurements from FireProtDB (doi:10.1021/bi982158q).

B1: Cytochrome b5, P00171 (parent)
chain: MAEESSKAVKYYTLEEIQKHNNSKSTWLILHYKVYDLTKFLEEHPGGEEVLREQAGGDATENFEDVGHSTDARELSKTFIIGELHPDDRSKITKPSESIITTIDSNPSWWTNWLIPAISALFVALIYHLYTSEN

Variants of: B1
Conditions: Bos taurus, pH 7, K2HPO4 5 mM, transition: 2, reversible: Yes, structure 1CYO, whole UniProt chain shown; for denaturant m value / denaturant midpoint (higher = more stable) / unfolding free energy: 25 °C, Urea; for Tm / change of melting temperature, mutant - wild type (higher = more stable): Thermal

Variant: MAEESSKAVKYYTLEEIQKHNNCKSTWLILHYKVYDLTKFLEEHPGGEEVLREQAGGDATENFEDVGHSTDARELSKTFIIGELHPDDRSKITKPSESIITTIDSNPSWWTNWLIPAISALFVALIYHLYTSEN [S23C]
- denaturant m value (Absorbance): 0.97 kcal/mol/M
- denaturant midpoint (higher = more stable) (Absorbance): 6.5 M
- unfolding free energy (Absorbance): 6.9 kcal/mol
- denaturant m value (Fluorescence): 0.56 kcal/mol/M
- denaturant midpoint (higher = more stable) (Fluorescence): 2.5 M
- unfolding free energy (Fluorescence): 1.4 kcal/mol
- Tm (Absorbance): 75.5 °C
- change of melting temperature, mutant - wild type (higher = more stable) (Absorbance): 0.3 °C
- Tm (Fluorescence): 52.7 °C
- change of melting temperature, mutant - wild type (higher = more stable) (Fluorescence): 2.6 °C

Variant: MAEESSKAVKYYTLEEIQKHNNCKSTWLILHYKVYDLTKFLEEHPGGEEVLCEQAGGDATENFEDVGHSTDARELSKTFIIGELHPDDRSKITKPSESIITTIDSNPSWWTNWLIPAISALFVALIYHLYTSEN [S23C R52C]
- denaturant m value (Absorbance): 0.81 kcal/mol/M
- denaturant midpoint (higher = more stable) (Absorbance): 6.4 M
- unfolding free energy (Absorbance): 5.2 kcal/mol
- denaturant m value (Fluorescence): 0.93 kcal/mol/M
- denaturant midpoint (higher = more stable) (Fluorescence): 3.7 M
- unfolding free energy (Fluorescence): 3.4 kcal/mol
- Tm (Absorbance): 76 °C
- change of melting temperature, mutant - wild type (higher = more stable) (Absorbance): 0.8 °C
- Tm (Fluorescence): 60.8 °C
- change of melting temperature, mutant - wild type (higher = more stable) (Fluorescence): 10.7 °C
